Reference: patent US20240141048A1 (DYNAMICURE BIOTECHNOLOGY, published 2024)
Where a chain is given by its changes, count along the chain named.

B1: anti-VISTA antibody 9F9 (antibody, V domains shown)
VH: QVQFQQSGAELARPGASVKLSCKASGYTFTGYWMQWVKQRPGQGLEWIGAIYPGDGDTRYSQKFKGKVTLTADKSSSTAYMQLSSLASEDSAVYYCARRDYGAWFAYWGQGTLVTVSA
VL: DIKVTQSPSSMYASLGERVTITCKASQDINSYLSWFQQKPGKSPKTLIYRANRLVDGVPSRFSGSGSGQDYSLTISSLDYEDMGIYYCLQYDEFPYTFGGGTKLEIK
notes: Mouse monoclonal
B2: anti-VISTA antibody 15D11 (antibody, V domains shown)
VH: EVQLQQSGSELVKAGASVKLSCTASGFKIKDTFIHWVKQRPEQGLDWIGRIDPANGNSKYDPKFQGKATITADTSSNTAYLQLSSLTSEDTAVYYCARWPSNWEAMDYWGQGTSVTVSS
VL: QIVLTQSPAIMSASPGEKVTMTCSASSSVSYMYWYQQKPGSSPRLLIYDTSNLASGVPFRFSGSGSGTSYSLTISRMEAEDAATYYCQQWISYPLTFGTGTKLELK
notes: Mouse monoclonal from hybridoma
B3: anti-VISTA antibody 17E9 (antibody, IgG1, V domains shown)
VH: QVQLQQSGAELMKPGASVKISCTATGYTFSSCWIEWVKQRPGHGLEWLGEILPGSDYTNYNEKFKDKATFTADTSSDTAYMQLSSLTSEDSAVYYCARRPPGWYFDVWGAGTAVTVSS
VL: DIVMTQSHKFMSTSVGDRVSITCKASQDVSTDIAWYQQKPGQSPKLLIYSASYRFTGVPDRFTGSGSGTDFTFTISSVQAEDLAVYYCQHQYSTPWTFGGGTKLDIK
notes: Mouse monoclonal; Tested as hybridoma supernatant and as recombinant mIgG1
B4: anti-VISTA antibody 16A1 (antibody, IgG1, V domains shown)
VH: QVQLQQSGAELMKPGASVKISCKATGYTFSSSWIEWVKQRPGHGLEWIGEIFPGSGSLNFNEKFKGKATFTADTSSNTAYLQLSSLTSDDSAVYYCARRPPGWFFDVWGAGTTVTVSS
VL: B3 VL with S30T, I33V, F55Y, A84T, H90Q, Q91H, T94S, D105E
notes: as for B3
B5: anti-VISTA antibody 20E4 (antibody, IgG1, V domains shown)
VH: B4 VH with I34V, K38R, L58T, N59H, F60Y
VL: B3 VL with I33V, F55Y, H90Q, Q91H, D105E
notes: as for B3

biological target: human VISTA extracellular transmembrane-CD3zeta chimera on Jurkat-nfkb-GFP reporter cells (human, UniProt P20963 52-164); assay: cell-based or functional assay

Binder | percentage of activated Jurkat-NFKb-GFP/hVISTA-hCD3z cells in the presence of OKT3 (3 ng/ml)
B1 | > 60%
B2 | ≤ 60%

biological target: T1, human VISTA full length on Jurkat cells (human, UniProt Q9H7M9 33-311); assay: flow cytometry, hybridoma supernatant on Jurkat cells expressing human VISTA
T1 construct: also called Jurkat-hVISTA
T1 sequence: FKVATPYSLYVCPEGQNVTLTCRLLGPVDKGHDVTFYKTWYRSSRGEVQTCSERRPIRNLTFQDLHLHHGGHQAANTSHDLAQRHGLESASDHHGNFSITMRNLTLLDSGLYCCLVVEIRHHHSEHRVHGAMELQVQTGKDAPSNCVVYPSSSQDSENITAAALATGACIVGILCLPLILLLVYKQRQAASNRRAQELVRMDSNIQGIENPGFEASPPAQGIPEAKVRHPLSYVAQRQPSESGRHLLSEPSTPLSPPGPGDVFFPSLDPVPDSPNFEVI
Procedure: (§1) Human and mouse VISTA expressing Jurkat cells were cultured in RPMI1640 with 10% FBS. Cells were seeded into a 96 well plate at 1×10⁵ cells/well. Then the cells were incubated with anti-VISTA hybridoma supernatants for 30 minutes at 4° C. […] After washing with FACS buffer, the cells were incubated with Alexa Fluor 647 conjugated anti-mouse IgG(H+L)(1 μg/ml) (Jackson ImmunoResearch, Cat. #61505214) for 30 minutes at 4° C. After washing with FACS buffer twice, the samples were run in a NovoCyte Flow Cytometer (Agilent). Data was analyzed using the NovoExpress Software.

Binder | binding result
B1 | binds
B3 | binds
B4 | binds
B5 | binds

biological target: T2, His-tagged mouse VISTA extracellular domain protein (in house) (mouse, UniProt Q9D659 33-191); assay: ELISA, hybridoma supernatant on coated mouse VISTA ECD (2 µg/mL)
T2 construct: extracellular domain; also called mouse VISTA ECD; mVISTA; not shown: His tag
T2 sequence (looked up): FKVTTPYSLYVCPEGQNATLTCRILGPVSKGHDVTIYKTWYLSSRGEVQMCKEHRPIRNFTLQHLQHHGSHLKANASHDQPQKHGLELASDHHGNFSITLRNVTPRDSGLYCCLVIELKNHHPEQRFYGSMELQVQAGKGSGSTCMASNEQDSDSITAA
Procedure: (§2) 50 μl of hybridoma supernatant was incubated with human VISTA ECD (2 μg/ml), mouse VISTA ECD (2 μg/mL), cynomolgus VISTA (2 μg/mL), or negative mouse IgG1 control coated on 96 well ELISA plates. Mouse anti-VISTA antibodies were detected by anti-mouse IgG-HRP (Jackson ImmunoResearch, Cat. # 615035214).

Binder | binding result
B1 | binds
B2 | binds
B3 | binds
B5 | binds

biological target: T3, His-tagged human VISTA extracellular domain protein (in house) (human, UniProt Q9H7M9 33-194); assay: ELISA, hybridoma supernatant on coated human VISTA ECD (2 µg/ml)
T3 construct: also called human VISTA ECD; hVISTA; not shown: His tag
T3 sequence: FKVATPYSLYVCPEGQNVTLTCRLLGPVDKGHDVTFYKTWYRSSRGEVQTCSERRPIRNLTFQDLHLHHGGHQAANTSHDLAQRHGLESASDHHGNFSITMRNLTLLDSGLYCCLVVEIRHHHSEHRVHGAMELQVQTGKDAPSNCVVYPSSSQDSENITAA
Procedure: as §2

Binder | binding result
B1 | binds
B2 | binds
B3 | binds
B4 | binds
B5 | binds

biological target: T4, mouse VISTA full length on Jurkat cells (mouse, UniProt Q9D659 33-308); assay: flow cytometry, hybridoma supernatant on Jurkat cells expressing mouse VISTA
T4 construct: whole, on cells; also called Jurkat-mVISTA
T4 sequence (looked up): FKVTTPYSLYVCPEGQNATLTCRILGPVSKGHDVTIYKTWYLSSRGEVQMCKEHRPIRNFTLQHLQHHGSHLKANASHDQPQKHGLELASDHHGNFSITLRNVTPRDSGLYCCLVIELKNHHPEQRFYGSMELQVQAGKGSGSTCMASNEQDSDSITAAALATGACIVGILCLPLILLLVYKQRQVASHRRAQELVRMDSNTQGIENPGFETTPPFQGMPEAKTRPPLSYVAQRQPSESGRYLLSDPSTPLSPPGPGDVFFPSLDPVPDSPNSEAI
Procedure: as §1

Binder | binding result
B1 | binds
B3 | binds
B5 | binds
